The data set deals with the molecule itself. Kind of data set: crystal structure; Ets1 280-441 mixed 1:1.05 with TCRα promoter dsDNA; (Ets1)2•2DNA crystals grown at 295 K, space group P2_(1), refined at 3.1 Å; asymmetric unit holds an Ets1 homodimer and two pieces of dsDNA.

B1: Ets1 (residues 280–441) (domain or fragment, UniProt P14921 280-441, looked up)
chain: VPSYDSFDSEDYPAALPNHKPKGTFKDYVRDRADLNKDKPVIPAAALAGYTGSGPIQLWQFLLELLTDKSCQSFISWTGDGWEFKLSDPDEVARRWGKRKNKPKMNYEKLSRGLRYYYDKNIIHKTAGKRYVYRFVCDLQSLLGYTPEELHAMLDVKPDADE
notes: also called Ets1 dimer; source: cloned, expressed and purified according to reported protocols [36]
In general, stoichiometry N refers to a count of units in the complex or per binding partner. Consider B1, for which the “stoichiometry N” value worked out at 2.

Source of the values: PMC3303851, “Structural Basis of Ets1 Cooperative Binding to Widely Separated Sites on Promoter DNA” (PLoS ONE, 2012).
